In PMC11565642, “ATP-Triggered Fe(CN)2CO Synthon Transfer from the Maturase HypCD to the Active Site of Apo-[NiFe]-Hydrogenase” (Journal of the American Chemical Society, 2024):

Legend:
[1] = target: the molecule itself; assay: SEC; holo-HypCS-D after Strep-Tactin affinity chromatography, Superdex 200 Increase 10/300 GL; oligomers separated from the HypCD complex
[2] = target: T1, HypD from Escherichia coli (Escherichia coli, UniProt P24192 1-373); assay: pull-down; Strep-Tactin affinity chromatography by the Strep-tag II on HypC from soluble extracts of aerobically cultivated E. coli co-producing HypC_(Strep) and HypD (apo: pTHypDC_(Strep); holo: pTHypDEFC_(Strep)); 4 °C; SDS-PAGE of the isolated complexes; settings: partners not purified
T1 construct: HypD, [4Fe-4S] cluster-containing hydrogenase maturation factor, Escherichia coli; Carries a [4Fe-4S] cluster; No tag is named for HypD in the complexes; also called EcHypD; HypD part of HypCS-D and HypCH-D
T1 sequence (looked up): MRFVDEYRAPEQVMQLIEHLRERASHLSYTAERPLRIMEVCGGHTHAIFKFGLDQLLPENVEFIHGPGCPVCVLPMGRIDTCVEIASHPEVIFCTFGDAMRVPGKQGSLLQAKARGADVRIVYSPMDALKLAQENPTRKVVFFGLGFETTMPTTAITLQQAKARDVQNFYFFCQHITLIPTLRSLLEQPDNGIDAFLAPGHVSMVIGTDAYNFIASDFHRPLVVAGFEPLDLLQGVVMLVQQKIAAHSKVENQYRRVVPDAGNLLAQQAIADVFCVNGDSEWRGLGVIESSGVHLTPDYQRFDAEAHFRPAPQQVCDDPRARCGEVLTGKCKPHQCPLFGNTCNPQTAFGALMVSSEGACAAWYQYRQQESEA

B1: HypC_(Strep) (HypC from Escherichia coli with Strep-tag II C-terminally fused) (natural protein, UniProt P0AAM3 1-90, looked up)
chain: MCIGVPGQIRTIDGNQAKVDVCGIQRDVDLTLVGSCDENGQPRVGQWVLVHVGFAMSVINEAEARDTLDALQNMFDVEPDVGALLYGEEK
notes: HypC, hydrogenase maturation factor, Escherichia coli; residue numbers count with Met1 as 1; also called EcHypC; HypC part of apo-HypCS-D and holo-HypCS-D; source: holo form additionally by size-exclusion chromatography; not shown: Strep-tag II, C-terminal, kept
B1: binds [1]; binds [2].
